Experimental data: patent US10344077 (DUKE UNIVERSITY, dated 2019)

Legend:
STUB-1 = target: T1, STUB-1 (human, UniProt Q9UNE7 1-303); assay: array of human antigens
T1 sequence (looked up): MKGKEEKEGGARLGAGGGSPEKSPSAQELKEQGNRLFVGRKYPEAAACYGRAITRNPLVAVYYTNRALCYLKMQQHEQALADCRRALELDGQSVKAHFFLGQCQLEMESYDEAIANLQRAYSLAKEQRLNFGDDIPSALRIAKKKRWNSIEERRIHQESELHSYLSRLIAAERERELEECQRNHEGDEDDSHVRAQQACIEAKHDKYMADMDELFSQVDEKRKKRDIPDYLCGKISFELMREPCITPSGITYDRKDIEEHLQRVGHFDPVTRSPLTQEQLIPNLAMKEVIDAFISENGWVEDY

Scl-70 [1] = target: T2, Scl-70 (UniProt P11387 2-765); assay: AtheNA
T2 sequence (looked up): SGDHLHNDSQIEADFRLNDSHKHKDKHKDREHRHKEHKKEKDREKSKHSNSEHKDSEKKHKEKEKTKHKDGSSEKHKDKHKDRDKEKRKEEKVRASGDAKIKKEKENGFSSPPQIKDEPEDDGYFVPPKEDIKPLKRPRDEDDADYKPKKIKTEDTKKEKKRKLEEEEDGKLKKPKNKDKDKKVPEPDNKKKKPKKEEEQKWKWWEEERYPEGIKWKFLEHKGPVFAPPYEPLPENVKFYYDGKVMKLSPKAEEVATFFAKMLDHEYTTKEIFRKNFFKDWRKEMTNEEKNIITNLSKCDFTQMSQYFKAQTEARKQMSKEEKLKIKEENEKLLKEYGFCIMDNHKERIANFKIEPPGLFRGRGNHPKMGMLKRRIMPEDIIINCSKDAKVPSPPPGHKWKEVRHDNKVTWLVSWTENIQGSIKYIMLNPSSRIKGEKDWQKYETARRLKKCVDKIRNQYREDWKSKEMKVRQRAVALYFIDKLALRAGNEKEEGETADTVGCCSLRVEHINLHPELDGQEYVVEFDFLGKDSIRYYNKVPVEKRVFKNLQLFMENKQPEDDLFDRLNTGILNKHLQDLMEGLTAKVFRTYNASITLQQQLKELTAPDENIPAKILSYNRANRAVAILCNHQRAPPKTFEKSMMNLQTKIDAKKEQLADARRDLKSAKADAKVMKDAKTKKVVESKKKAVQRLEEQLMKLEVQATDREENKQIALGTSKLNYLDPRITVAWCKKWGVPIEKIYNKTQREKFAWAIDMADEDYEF
Excerpt: (§1) AtheNA Multi-Lyte ANA Plus Test System is one such assay. This is luminex-based assay, which is also used to screen patient sera.

SSB [2] = target: T3, SSB (UniProt P05455 1-408); assay: AtheNA
T3 sequence (looked up): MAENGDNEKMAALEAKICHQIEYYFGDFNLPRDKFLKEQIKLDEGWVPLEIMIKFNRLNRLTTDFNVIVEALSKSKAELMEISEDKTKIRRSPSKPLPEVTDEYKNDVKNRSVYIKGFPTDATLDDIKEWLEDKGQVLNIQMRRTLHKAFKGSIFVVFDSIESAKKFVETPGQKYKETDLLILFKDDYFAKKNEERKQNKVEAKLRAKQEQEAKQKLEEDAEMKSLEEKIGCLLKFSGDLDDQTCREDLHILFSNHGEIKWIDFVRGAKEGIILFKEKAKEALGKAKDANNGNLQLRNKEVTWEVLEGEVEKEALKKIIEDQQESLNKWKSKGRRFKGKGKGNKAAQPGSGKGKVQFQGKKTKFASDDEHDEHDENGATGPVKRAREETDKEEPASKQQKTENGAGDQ
Excerpt: as §1

Jo-1 [3] = target: T4, Jo-1 (UniProt P12081 2-509); assay: AtheNA
T4 sequence (looked up): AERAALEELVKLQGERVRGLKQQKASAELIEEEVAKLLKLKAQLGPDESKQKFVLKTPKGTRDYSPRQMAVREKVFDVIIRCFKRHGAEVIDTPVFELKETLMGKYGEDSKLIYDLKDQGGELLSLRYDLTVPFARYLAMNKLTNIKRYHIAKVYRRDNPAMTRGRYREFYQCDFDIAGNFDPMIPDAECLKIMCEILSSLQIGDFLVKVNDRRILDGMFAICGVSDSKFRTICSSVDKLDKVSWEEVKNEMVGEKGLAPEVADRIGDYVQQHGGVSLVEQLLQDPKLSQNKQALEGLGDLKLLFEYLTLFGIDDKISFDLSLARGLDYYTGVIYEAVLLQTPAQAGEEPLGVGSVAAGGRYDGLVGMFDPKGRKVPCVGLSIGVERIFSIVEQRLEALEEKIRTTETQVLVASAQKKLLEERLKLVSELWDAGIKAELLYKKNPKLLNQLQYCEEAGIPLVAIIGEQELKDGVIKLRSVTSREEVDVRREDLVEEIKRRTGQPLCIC
Excerpt: as §1

Histones [4] = assay: AtheNA, Ab 6.25 ug/ml
Excerpt: as §1

Scl-70 [5] = target: T2, Scl-70; assay: AtheNA, Ab 6.25 ug/ml
Excerpt: as §1

Sm (Smith antigen) [6] = assay: AtheNA, Ab 6.25 ug/ml
Excerpt: as §1

SSB [7] = target: T3, SSB; assay: AtheNA, Ab 6.25 ug/ml
Excerpt: as §1

Centromere B [8] = target: T5, Centromere B (UniProt P07199 2-599); assay: AtheNA, Ab 6.25 ug/ml
T5 construct: also called Cent B
T5 sequence (looked up): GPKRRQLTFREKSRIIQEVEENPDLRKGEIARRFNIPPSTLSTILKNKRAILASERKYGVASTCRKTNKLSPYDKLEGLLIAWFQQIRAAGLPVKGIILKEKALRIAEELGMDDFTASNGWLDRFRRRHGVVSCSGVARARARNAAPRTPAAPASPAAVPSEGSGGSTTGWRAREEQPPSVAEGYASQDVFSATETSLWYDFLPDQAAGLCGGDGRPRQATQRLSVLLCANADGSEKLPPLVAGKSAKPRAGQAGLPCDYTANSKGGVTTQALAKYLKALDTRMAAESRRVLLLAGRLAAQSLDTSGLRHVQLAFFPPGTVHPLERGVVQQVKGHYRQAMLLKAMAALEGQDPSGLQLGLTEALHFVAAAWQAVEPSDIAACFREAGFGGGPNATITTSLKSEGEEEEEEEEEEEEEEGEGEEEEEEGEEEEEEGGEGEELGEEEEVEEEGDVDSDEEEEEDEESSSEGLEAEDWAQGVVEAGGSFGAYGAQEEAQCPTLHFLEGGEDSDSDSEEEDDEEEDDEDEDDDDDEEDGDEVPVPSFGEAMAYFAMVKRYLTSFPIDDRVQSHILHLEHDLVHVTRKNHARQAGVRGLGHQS
Excerpt: as §1

RNP (ribonucleoprotein) [9] = assay: AtheNA, Ab 6.25 ug/ml
Excerpt: as §1

Jo-1 [10] = target: T4, Jo-1; assay: AtheNA, Ab 6.25 ug/ml
Excerpt: as §1

SSA [11] = assay: AtheNA, Ab 6.25 ug/ml
Excerpt: as §1

Histones [12] = assay: AtheNA, Ab 25 ug/ml
Excerpt: as §1

Scl-70 [13] = target: T2, Scl-70; assay: AtheNA, Ab 25 ug/ml
Excerpt: as §1

Sm (Smith antigen) [14] = assay: AtheNA, Ab 25 ug/ml
Excerpt: as §1

SSB [15] = target: T3, SSB; assay: AtheNA, Ab 25 ug/ml
Excerpt: as §1

Centromere B [16] = target: T5, Centromere B; assay: AtheNA, Ab 25 ug/ml
Excerpt: as §1

RNP (ribonucleoprotein) [17] = assay: AtheNA, Ab 25 ug/ml
Excerpt: as §1

Jo-1 [18] = target: T4, Jo-1; assay: AtheNA, Ab 25 ug/ml
Excerpt: as §1

SSA [19] = assay: AtheNA, Ab 25 ug/ml
Excerpt: as §1

Histones [20] = assay: AtheNA, Ab 50 ug/ml
Excerpt: as §1

Scl-70 [21] = target: T2, Scl-70; assay: AtheNA, Ab 50 ug/ml
Excerpt: as §1

Sm (Smith antigen) [22] = assay: AtheNA, Ab 50 ug/ml
Excerpt: as §1

SSB [23] = target: T3, SSB; assay: AtheNA, Ab 50 ug/ml
Excerpt: as §1

Centromere B [24] = target: T5, Centromere B; assay: AtheNA, Ab 50 ug/ml
Excerpt: as §1

RNP (ribonucleoprotein) [25] = assay: AtheNA, Ab 50 ug/ml
Excerpt: as §1

Jo-1 [26] = target: T4, Jo-1; assay: AtheNA, Ab 50 ug/ml
Excerpt: as §1

SSA [27] = assay: AtheNA, Ab 50 ug/ml
Excerpt: as §1

Histones [28] = assay: AtheNA, Ab 12.5 ug/ml
Excerpt: as §1

Scl-70 [29] = target: T2, Scl-70; assay: AtheNA, Ab 12.5 ug/ml
Excerpt: as §1

Sm (Smith antigen) [30] = assay: AtheNA, Ab 12.5 ug/ml
Excerpt: as §1

SSB [31] = target: T3, SSB; assay: AtheNA, Ab 12.5 ug/ml
Excerpt: as §1

Centromere B [32] = target: T5, Centromere B; assay: AtheNA, Ab 12.5 ug/ml
Excerpt: as §1

RNP (ribonucleoprotein) [33] = assay: AtheNA, Ab 12.5 ug/ml
Excerpt: as §1

Jo-1 [34] = target: T4, Jo-1; assay: AtheNA, Ab 12.5 ug/ml
Excerpt: as §1

SSA [35] = assay: AtheNA, Ab 12.5 ug/ml
Excerpt: as §1

B1: CH557 (antibody, V domains shown)
VH: QVRLAQYGGGVKRLGATMTLSCVASGYTFNDYYIHWVRQAPGQGFELLGYIDPANGRPDYAGALRERLSFYRDKSMETLYMDLRSLRYDDTAMYYCVRNVGTAGSLLHYDHWGSGSPVIVSS
VL: EIVLTQSPATLSASPGERVTLTCRASRSVRNNVAWYQHKGGQSPRLLIYDASTRAAGVPARFSGSASGTEFTLAISNLESEDFTVYFCLQYNNWWTFGQGTRVDIK
notes: also called CH557_4A/293i
Does B1 bind (STUB-1)?
Result: no binding

Does B1 bind (Scl-70 [1])?
Result: no binding (tested: 6.25 ug/ml to 50 ug/ml)

Does B1 bind (SSB [2])?
Result: no binding (tested: 6.25 ug/ml to 50 ug/ml)

Does B1 bind (Jo-1 [3])?
Result: no binding (tested: 6.25 ug/ml to 50 ug/ml)

And the Athena reading (Histones [4])?
The Athena reading was 4 relative luminescence units.

And the Athena reading (Scl-70 [5])?
Its Athena reading is 3 relative luminescence units.

And the Athena reading (Sm (Smith antigen) [6])?
The Athena reading was 4 relative luminescence units.

What about the Athena reading (SSB [7]) of the same binder?
The Athena reading was 5 relative luminescence units.

What about the Athena reading (Centromere B [8]) of the same binder?
The Athena reading was 11 relative luminescence units.

And the Athena reading (RNP (ribonucleoprotein) [9])?
Its Athena reading is 4 relative luminescence units.

What about the Athena reading (Jo-1 [10]) of the same binder?
The Athena reading was 5 relative luminescence units.

What about the Athena reading (SSA [11]) of the same binder?
Its Athena reading is 4 relative luminescence units.

What about the Athena reading (Histones [12]) of the same binder?
The Athena reading was 8 relative luminescence units.

And the Athena reading (Scl-70 [13])?
Its Athena reading is 4 relative luminescence units.

And the Athena reading (Sm (Smith antigen) [14])?
The Athena reading was 6 relative luminescence units.

What about the Athena reading (SSB [15]) of the same binder?
The Athena reading was 12 relative luminescence units.

What about the Athena reading (Centromere B [16]) of the same binder?
The Athena reading was 25 relative luminescence units.

And the Athena reading (RNP (ribonucleoprotein) [17])?
Its Athena reading is 6 relative luminescence units.

And the Athena reading (Jo-1 [18])?
The Athena reading was 2 relative luminescence units.

What about the Athena reading (SSA [19]) of the same binder?
The Athena reading was 4 relative luminescence units.

What about the Athena reading (Histones [20]) of the same binder?
The Athena reading was 16 relative luminescence units.

And the Athena reading (Scl-70 [21])?
Its Athena reading is 6 relative luminescence units.

What about the Athena reading (Sm (Smith antigen) [22]) of the same binder?
The Athena reading was 8 relative luminescence units.

What about the Athena reading (SSB [23]) of the same binder?
The Athena reading was 15 relative luminescence units.

What about the Athena reading (Centromere B [24]) of the same binder?
Its Athena reading is 46 relative luminescence units.

And the Athena reading (RNP (ribonucleoprotein) [25])?
The Athena reading was 10 relative luminescence units.

And the Athena reading (Jo-1 [26])?
Its Athena reading is 10 relative luminescence units.

And the Athena reading (SSA [27])?
Its Athena reading is 6 relative luminescence units.

What about the Athena reading (Histones [28]) of the same binder?
The Athena reading was 6 relative luminescence units.

What about the Athena reading (Scl-70 [29]) of the same binder?
Its Athena reading is 3 relative luminescence units.

And the Athena reading (Sm (Smith antigen) [30])?
The Athena reading was 6 relative luminescence units.

And the Athena reading (SSB [31])?
Its Athena reading is 9 relative luminescence units.

And the Athena reading (Centromere B [32])?
Its Athena reading is 16 relative luminescence units.

And the Athena reading (RNP (ribonucleoprotein) [33])?
The Athena reading was 3 relative luminescence units.

And the Athena reading (Jo-1 [34])?
Its Athena reading is 5 relative luminescence units.

And the Athena reading (SSA [35])?
Its Athena reading is 3 relative luminescence units.
